This is an account of results in US10876098B2, “Polynucleotide, host cell and a method to recombinantly produce the protein encoded by said polynucleotide having peroxygenative activity” (CONSEJO SUPERIOR DE INVESTIGACIONES CIENTIFICAS (CSIC), priority 2015, dated 2020).

A short description of data set [1]: Isoelectric point by two-dimensional electrophoresis. It counts as physicochemical. The procedure:
The analyses were performed using an Autoflex III MALDI-TOF-TOF unit with smartbeam laser (Bruker Daltonics). The samples were evaluated in positive mode. The method was calibrated using BSA with standard, thereby covering a range of 15,000 to 70,000 Da. In order to determine the isoelectric point of the UPO variants, 8 μg of pure enzyme were subjected to two-dimensional electrophoresis. These experiments were carried out at the Proteomic and Genomic Service of the Biological Research Centre (CIB-CSIC, Spain).

A short description of a further data set: Optimum pH for ABTS. It counts as biochemical.
A short description of data set [2]: Naphthalene transformation reaction analysed by HPLC-PDA. It counts as biochemical. As for the experimental part:
A) Products formed after 15 minutes of reaction stopped with 20 μL of HCl 37% (PaDa-I, black bars; JaWa, grey bars). […] C) and D) Monitoring of the reaction for 270 minutes (without adding HCl) for the PaDa-I (C) and JaWa (D) mutants.
The reactions were analysed by means of chromatography in reverse phase (HPLC). The equipment is composed by a tertiary pump (Varian-Agilent Technologies, USA) coupled to an autosampler (Merck Millipore, MA, USA); an ACE C18 PFP column was used for separation (pentafluorophenyl, 15 cm×4.6 cm) at 45° C. and detection was performed using a photodiode detector (PDA) (Varian-Agilent Technologies, USA). The mobile phase selected was 70% methanol and 30% ddH2O (in both cases with 0.1% of acetic acid) at a flow rate of 0.8 mL/min. The reaction was quantified at 268 nm (based on standard HPLCs). […] For long reaction times, the conditions used were those described earlier but without stopping the reaction with HCl. A sample of 10 μL was injected and analysed at different reaction times (from 1 to 270 minutes).

A short description of data set [3]: Dual colorimetric HTS, naphthalene-Fast Red (peroxygenase activity on microplate). It counts as biochemical. The following applies: parental PaDa-I; S. cerevisiae microcultures. As for the experimental part:
(§1) The mother plates were centrifuged (Eppendorf 5810R centrifuge, Germany) for 10 minutes at 3,500 RPM and 4° C. 20 μL of supernatant were transferred from these mother plates to two replica daughter plates with the help of a Freedom EVO liquid handling robot (Tecan, Switzerland).
(§2) The plates were briefly agitated and initial absorbance was measured at 469 nm and 510 nm, respectively, using a plate reader for such purpose ([…]ax Plus 384, Molecular Devices, USA). […] The plates were kept at room temperature until they turned orange (DMP) or red (naphthol-Fast Red), at which time the absorbance was newly measured. The values were normalised against the parental of each plate. In order to rule out false positives, two re-screenings were carried out, in addition to a third re-screening wherein kinetic stability was determined (T50) (P. Molina-Espeja, et al. Appl. Environ. Microbiol. 2014. 80, 3496-3507).

Data set [4] can be described thus: Dual colorimetric HTS, DMP (peroxidase activity on microplate). It counts as biochemical. The following applies: parental PaDa-I; S. cerevisiae microcultures. As for the experimental part:
as §1, §2

Data set [5] in a line: 4-AAP assay with propranolol in the presence of ascorbic acid (peroxygenase activity). It counts as biochemical. To be noted: 0.2 μM pure variant, 5 mM propranolol, 2 mM H2O2, with and without 4 mM ascorbic acid. The procedure: FIG. 9 Assay of 4-AAP (4-aminoantipyrine) with different pure UPO variants (AaeUPO1, PaDa-1 and JaWa). […] Each reaction was performed in triplicate.
The mother plates were centrifuged (Eppendorf 5810R centrifuge, Germany) for 10 minutes at 3,500 RPM and 4° C. 20 μL of supernatant of these mother plates were transferred to two replica daughter plates with the help of a Freedom EVO liquid-handling robot (Tecan, Switzerland).
Without ascorbic, the plates were incubated for 30 minutes and with ascorbic for 60 minutes. […] The plates were briefly agitated and absorbance measured at 530 nm, using a plate reader for such purpose ([…]ax Plus 384, Molecular Devices, USA). The values were normalised against the parental of each plate. To rule out false positives, re-screenings were carried out, in addition to a third re-screening wherein kinetic stability was determined (T50) (P. Molina-Espeja, et al. Appl. Environ. Microbiol. 2014. 80, 3496-3507).

Data set [6] can be described thus: Propranolol transformation reaction analysed by HPLC-PDA. It counts as biochemical. To be noted: absence of ascorbic acid. As for the experimental part:
FIG. 13 Chromatogram showing the enzyme reactions.
(§3) The reactions were analysed by means of chromatography in reverse phase (HPLC). The equipment was composed of a tertiary pump (Varian-Agilent Technologies, USA) coupled to an autosampler (Merck Millipore, MA, USA); for the separation, a Zorbax Eclipse plus C18 column (15 cm×4.6 cm) at 40° C. was used and the detection was performed using a photodiode detector (PDA) (Varian, Agilent Technologies, USA). The mobile phase selected was a gradient from 10% methanol and 90% ddH2O (in both cases with 0.1% of acetic acid) up to 90% methanol and 10% ddH2O at a flow rate of 0.8 mL/min. The reaction was quantified at 280 nm (based on HPLC standards). […] The standard deviations were less than 5% in all cases.

Data set [7] is described as follows: Total turnover number (TTN) for synthesis of 5′-hydroxypropranolol from propranolol. It counts as biochemical. The following applies: 0.03 μM enzyme, propranolol, 2 mM H2O2 added every 10 minutes. As for the experimental part:
FIG. 15 Calculation of the total turnover number (TTN) of AaeUPO and SoLo.
as §3

The mark [8] stands for this setting: 15 minutes of reaction stopped with HCl.
Setting [9] is: 15 minutes of reaction stopped with HCl, 6.6 nM enzyme, 1 mM naphthalene, 1 mM H2O2.

B1: JaWa: PaDa-I variant with added mutations G241D and R257K, SEQ ID NO: 24 (protein)
chain: MKYFPLFPTLVYAVGVVAFPDYASLAGLSQQELDAIIPTLEAREPGLPPGPLENSSAKLVNDEAHPWKPLRPGDIRGPCPGLNTLASHGYLPRNGVATPAQIINAVQEGFNFDNQAAIFATYAAHLVDGNLITDLLSIGRKTRLTGPDPPPPASVGGLNEHGTFEGDASMTRGDAFFGNNHDFNETLFEQLVDYSNRFGGGKYNLTVAGELRFKRIQDSIATNPNFSFVDFRFFTAYGETTFPANLFVDGRRDDGQLDMDAARSFFQFSRMPDDFFRAPSPRSDTGVEVVVQAHPMQPGKNVGKINSYTVDPTSSDFSTPCLMYEKFVNITVKSLYPNPTVQLRKALNTNLDFLFQGVAAGCTQVFPYGRD
As for B1, the pI in data set [1] came to 5.3. The “Optimum pH for ABTS” value in the data set “Optimum pH for ABTS” came out at 4.0. In data set [2] (setting [8]), the “1,4-naphthoquinone (oxidation product) detected” value was “without detectable traces of 1,4-naphthoquinone” and the “increase in the production of 1-naphthol, more than PaDa-I” value was 156%. Besides, in data set [2] (setting [9]), the “regioselectivity, 1-naphthol” value worked out at 92% and the “regioselectivity, 2-naphthol” value was 8%. In addition, the “time at which formation of the epoxide intermediary reached its maximum” value in data set [2] (270 minute reaction at pH 7.0) was around 40 min. The “production of 1-naphthol” value in data set [2] (270 minutes at pH 7.0 without stopping the reaction) was found to be 0.32 mM. Besides, the “total turnover numbers (TTN), 1-naphthol” value in data set [2] (calculated using the production value of 1-naphthol after 270 minutes) is recorded as ~50,000 μmoles of product/μmoles of en. In data set [2] (long reaction times, 270 minutes at pH 7.0 without stopping the reaction), the “regioselectivity against 1-naphthol” value stood at 97%. Further, the “peroxygenase activity on microplate relative to parental” value in data set [3] is “doubled that of its parental”. In data set [4], the “peroxidase activity on microplate relative to parental” value was “reduced to half”. In addition, in data set [5], the “activity against propranolol in 4-AAP assay among pure UPO variants” value was “greatest activity against propranolol”. In addition, the “regioselectivity against 5′-hydroxypropranolol” value in data set [6] (0.03 μM enzyme, 4 mM propranolol, 2 mM H2O2) turned out to be 99%. Moreover, the “amount of 5′-hydroxypropranolol produced” value in data set [6] (compared among AaeUPO, PaDa-I, JaWa, SoLo) was “produce the largest amount of 5′-hydroxypropranolol”. The “TTNs, With ascorbic acid” value in data set [7] (4 mM ascorbic acid) was 48,000. Further, the “TTNs, Without ascorbic acid” value in data set [7] (absence of ascorbic acid) is recorded as 15,000.
